From publication PMC9200632, “Development of spirulina for the manufacture and oral delivery of protein therapeutics” (Nature Biotechnology, 2022)

Tests used:
[1] = biological target: T1, RBD antigen (SARS-CoV-2 receptor-binding domain) (SARS-CoV-2, variant  …, UniProt P0DTC2); test: ELISA
T1 construct: source: provided by R. Strong (Fred Hutchinson Cancer Institute)

[2] = biological target: T2, MBP–FlaA (C. jejuni flagellin FlaA, amino acids 177–482) (Campylobacter jejuni, flagellin A …, biotinylated (EZ-Link NGS-PEG4-Biotin kit) in the BLI); test: BLI; Octet Red96e; biotinylated MBP–FlaA loaded at 100 nM on streptavidin biosensors; purified aa682 from 1 μM to 10 nM in PBS with 1% BSA and 0.05% Tween-20; association 20 s, dissociation 140 s; global fit, 1:1 model; details: both partners purified
T2 construct: The biotinylated form was used for BLI; The ELISA methods name the coating protein only as recombinant FlaA; also called recombinant FlaA; recombinant C. jejuni flagellin; source: E. coli BL-21(DE3), purified (Amylose Resin); not shown: MBP, N-terminal, kept
T2 chain: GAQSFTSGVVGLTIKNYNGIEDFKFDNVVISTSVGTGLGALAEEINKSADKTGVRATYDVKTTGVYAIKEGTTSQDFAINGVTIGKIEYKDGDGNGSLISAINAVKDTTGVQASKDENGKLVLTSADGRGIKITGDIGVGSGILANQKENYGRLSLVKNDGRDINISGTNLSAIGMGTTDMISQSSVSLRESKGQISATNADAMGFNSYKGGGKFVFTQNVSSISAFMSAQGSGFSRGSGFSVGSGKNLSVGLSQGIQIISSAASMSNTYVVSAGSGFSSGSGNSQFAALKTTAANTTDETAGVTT

B1: PP622, monomeric RBD-binding VHH (VHH-72), E. coli-expressed and purified (VHH)
VHH: QVQLQESGGGLVQAGGSLRLSCAASGRTFSEYAMGWFRQAPGKEREFVATISWSGGSTYYTRSVKGRFTISRDNAKNTVYLQMNSLKPDDTAVYYCAAAGLGTVVSEWDYDYDYWGQGTQVTVSS
notes: also called monomeric VHH; source: E. coli, purified (IMAC)
[1]; both partners purified
  EC50: 18.3 nM

B2: dimeric RBD-binding VHH (VHH-72 on the 5HVZ scaffold) in extract of spirulina strain SP1477 (VHH)
VHH: B1 VHH
notes: as the dimerization motif of m5, named only by its PDB entry 5HVZ; also called dimeric VHH, extracted form; source: spirulina strain SP1477, in extract
[1]; one partner purified
  EC50: 1.29 nM

B3: PP661, dimeric RBD-binding VHH (VHH-72 on the 5HVZ scaffold), E. coli-expressed and purified (VHH)
VHH: B1 VHH
notes: also called dimeric VHH; source: E. coli, purified (IMAC)
[1]; both partners purified
  EC50: 0.32 nM

B4: monomeric RBD-binding VHH (VHH-72) in extract of spirulina strain SP1464 (VHH)
VHH: B1 VHH
notes: also called monomeric VHH, extract; source: spirulina strain SP1464, in extract
[1]; one partner purified
  EC50: 52.3 nM

B5: aa682 (VHH)
VHH: QVQLVESGGGLVQAGGSLRVSCTASVSTFSINALGWYRQAPGKARELVAAIGSDGTVYYTDSVKGRFTISRDNAKNTVSLQMSSLKPEDTAVYYCNAAGKRIGSDGSIWFAVASFGSWGQGTQVTVSS
notes: N-terminal methionine removed (intact mass); Monovalent VHH-MBP fusion, predicted MW 54.8 kDa
[2]
  Kd: 53 nM
